Experiment [1] addresses polyclonal human IgG (Gammanorm, Octapharma) (human). Nature of the experiment: breakthrough on a column of immobilised ligand, 1 mg/ml IgG, pH 7.4, residence time 2.4 min, ligand density 9.6 mg/ml.
Experiment [2] shares this target. Nature of the experiment: gradient elution pH 6 to pH 3 (0.1 M citrate) from a column of immobilised ligand, pH at peak apex.
Experiment [3] has the same target. Nature of the experiment: gradient elution pH 6 to pH 3 from a column of immobilised ligand; polyclonal IgG (Gammanorm) shows the biggest difference.

Regarding “Mutant Z(H18S)4: ligand tetramer containing four copies of protein Z, each containing the H18S substitution (designed binder)”, in experiment [1], the Qb10% (dynamic binding capacity at 10% breakthrough) came to 36.4 mg/ml resin and the Qb80% (dynamic binding capacity at 80% breakthrough) turned out to be 65 mg/ml resin. In experiment [2], this substance yielded an elution pH, hIgG (first peak) of 5.11 pH and an elution pH, hIgG (second peak) of 4.61 pH. The increase in elution pH compared to Z4 in experiment [3] is > 1 >pH unit.

For the origin of these results see US20130338339A1.
